Measurements as given in patent US20180346602A1.

Legend:
[1] = target: anti-IGF-1R antibody (IgG1 subclass with mutations I253A/H310A/H435A) (human) [IgG part: P01857]; assay: sandwich ELISA assay B; capture on SA plate; tracer M1.7.10-Dig; analyte 2 ng/mL
[2] = target: anti-P-Selectin antibody (IgG4 subclass with mutations S228P/L235E) (human) [IgG part: P01861]; assay: as above
[3] = target: anti-VEGF/ANG2 antibody (IgG1 subclass with mutations P329G/L234A/L235A/I253A/H310A/H435A) (human) [IgG part: P01857]; assay: as above
[4] = target: anti-VEGF/ANG2 antibody (IgG1 subclass with mutations P329G/L234A/L235A) (human) [IgG part: P01857]; assay: as above
[5] = target: anti-VEGF/ANG2 antibody (IgG1 subclass with mutations P329G/L234A/L235A/I253A/H310A/H435A) [IgG part: P01857]; assay: sandwich ELISA assay A; capture M1.7.10-Bi; antibody 1 at 2 ng/mL
[6] = target: anti-VEGF/ANG2 antibody (IgG1 subclass with mutations P329G/L234A/L235A) [IgG part: P01857]; assay: sandwich ELISA assay A; capture M1.7.10-Bi; antibody 2 at 0 ng/mL (blank)
[7] = target: anti-IGF-1R antibody (IgG1 subclass with mutations I253A/H310A/H435A) [IgG part: P01857]; assay: sandwich ELISA assay A; capture M1.7.10-Bi; antibody 3 at 2 ng/mL
[8] = target: anti-P-Selectin antibody (IgG4 subclass with mutations S228P/L235E) [IgG part: P01861]; assay: sandwich ELISA assay A; capture M1.7.10-Bi; antibody 4 at 50 ng/mL
[9] = target: anti-IGF-1R antibody (IgG1 subclass with mutations I253A/H310A/H435A) (human) [IgG part: P01857]; assay: sandwich ELISA assay C; capture on SA plate; tracer FcγRI-Dig; analyte 13 ng/mL
[10] = target: anti-P-Selectin antibody (IgG4 subclass with mutations S228P/L235E) (human) [IgG part: P01861]; assay: as above
[11] = target: anti-VEGF/ANG2 antibody (IgG1 subclass with mutations P329G/L234A/L235A/I253A/H310A/H435A) (human) [IgG part: P01857]; assay: as above
[12] = target: anti-VEGF/ANG2 antibody (IgG1 subclass with mutations P329G/L234A/L235A) (human) [IgG part: P01857]; assay: as above
[13] = target: anti-P-Selectin antibody (IgG4 subclass with mutations S228P/L235E) [IgG part: P01861]; assay: sandwich ELISA assay A; capture M1.7.10-Bi; antibody 4 at 100 ng/mL
[14] = target: anti-P-Selectin antibody (IgG4 subclass with mutations S228P/L235E) [IgG part: P01861]; assay: sandwich ELISA assay A; capture M1.7.10-Bi; antibody 4 at 25 ng/mL
[15] = target: anti-IGF-1R antibody (IgG1 subclass with mutations I253A/H310A/H435A) [IgG part: P01857]; assay: sandwich ELISA assay A; capture M1.7.10-Bi; antibody 3 at 50 ng/mL
[16] = target: anti-VEGF/ANG2 antibody (wild-type IgG1 subclass) [IgG part: P01857]; assay: sandwich ELISA assay A; capture M1.7.10-Bi; antibody 5 at 2 ng/mL
[17] = target: anti-P-Selectin antibody (IgG4 subclass with mutations S228P/L235E) [IgG part: P01861]; assay: sandwich ELISA assay A; capture M1.7.10-Bi; antibody 4 at 2 ng/mL
[18] = target: anti-IGF-1R antibody (IgG1 subclass with mutations I253A/H310A/H435A) (human) [IgG part: P01857]; assay: sandwich ELISA assay C; capture on SA plate; tracer FcγRI-Dig; analyte 0 ng/mL (blank)
[19] = target: anti-P-Selectin antibody (IgG4 subclass with mutations S228P/L235E) (human) [IgG part: P01861]; assay: as above
[20] = target: anti-VEGF/ANG2 antibody (IgG1 subclass with mutations P329G/L234A/L235A/I253A/H310A/H435A) (human) [IgG part: P01857]; assay: as above
[21] = target: anti-VEGF/ANG2 antibody (IgG1 subclass with mutations P329G/L234A/L235A) (human) [IgG part: P01857]; assay: as above
[22] = target: anti-IGF-1R antibody (IgG1 subclass with mutations I253A/H310A/H435A) (human) [IgG part: P01857]; assay: sandwich ELISA assay C; capture on SA plate; tracer FcγRI-Dig; analyte 3 ng/mL
[23] = target: anti-P-Selectin antibody (IgG4 subclass with mutations S228P/L235E) (human) [IgG part: P01861]; assay: as above
[24] = target: anti-VEGF/ANG2 antibody (IgG1 subclass with mutations P329G/L234A/L235A/I253A/H310A/H435A) (human) [IgG part: P01857]; assay: as above
[25] = target: anti-VEGF/ANG2 antibody (IgG1 subclass with mutations P329G/L234A/L235A) (human) [IgG part: P01857]; assay: as above

Binder	signal [OD405 nm] [1] [OD405 nm]	signal [OD405 nm] [2] [OD405 nm]	signal [OD405 nm] [3] [OD405 nm]	signal [OD405 nm] [4] [OD405 nm]	signal [OD405 nm] [5] [OD405 nm]	signal [OD405 nm] [6] [OD405 nm]	signal [OD405 nm] [7] [OD405 nm]	signal [OD405 nm] [8] [OD405 nm]	signal [OD405 nm] [9] [OD405 nm]	signal [OD405 nm] [10] [OD405 nm]	signal [OD405 nm] [11] [OD405 nm]	signal [OD405 nm] [12] [OD405 nm]	signal [OD405 nm] [13] [OD405 nm]	signal [OD405 nm] [14] [OD405 nm]	signal [OD405 nm] [15] [OD405 nm]	signal [OD405 nm] [16] [OD405 nm]	signal [OD405 nm] [17] [OD405 nm]	signal [OD405 nm] [18] [OD405 nm]	signal [OD405 nm] [19] [OD405 nm]	signal [OD405 nm] [20] [OD405 nm]	other results
anti-variant (human) Fc-region antibody M1.3.17 (antibody, V domains shown) VH: EVKLLESGGGLVQPGGSLKLSCAASGIDFRRYWMNWVRQAPGKGLEWIGEIDPDSSTINYTPSLKDKFIISRDNAKNTMYLQMRKVRSEDTALYYCARPYDYGAWFAYWGQGTLVTVSA VL: QAVVTQESALTTSPGETVTLTCRSTTGAVTTSNYANWVQEKPDHLFTGLIGGTNKRAPGVPARFSGSLIGDKAALTITGAQTEDEAIYFCALWYSDHWVFGGGTKLTVL	0.047	0.049	0.036	0.125	0.043	0.042	0.042	0.037	1.21	1.16	1.14	1.23	0.04	0.037	0.044	0.034	0.034	1.22	1.19	1.18	signal [OD405 nm] [21]: 1.23 OD405 nm; signal [OD405 nm] [22]: 1.21 OD405 nm; signal [OD405 nm] [23]: 1.19 OD405 nm; signal [OD405 nm] [24]: 1.16 OD405 nm; signal [OD405 nm] [25]: 1.22 OD405 nm
anti-variant (human) Fc-region antibody M1.7.24 (antibody, V domains shown) VH: EVKLLESGGGLVQPGGSLKLSCAASGFDFSRYWMNWVRQAPGKGLEWIGEITPDSSTINYTPSLKDKFIISRDNAKNTLYLQMIKVRSEDTALYYCVRPYDYGAWFASWGQGTLVTVSA VL: QAVVTQESALTTSPGETVTLTCRSSTGAVTTSNYANWVQEKPDHLFTGLIGGTNKRAPGVPARFSGSLIGDKAALTITGAQTEDEAIYFCALWYSNHWVFGGGTKLTVL	0.047	0.033	0.049	1.73	0.042	0.043	0.048	0.049	0.058	0.066	0.085	0.06	0.046	0.048	0.048	0.038	0.036	0.086	0.076	0.076	signal [OD405 nm] [21]: 0.092 OD405 nm; signal [OD405 nm] [22]: 0.077 OD405 nm; signal [OD405 nm] [23]: 0.053 OD405 nm; signal [OD405 nm] [24]: 0.094 OD405 nm; signal [OD405 nm] [25]: 0.057 OD405 nm
anti-AAA variant Fc-region antibody M1.6.22 (antibody, V domains shown) VH: EVQLVESGGDLVKPGGSLKLSCAASGFTFSSYGMSWVRQTPDKRLEWVATISSGGSYIYYPDSVKGRFTISRDNAKNTLYLQMSSLKSEDTAMYYCARLGMITTGYAMDYWGQGTSVTVSS VL: DVLMTQTPLSLPVSLGDQASISCRSSQTIVHSTGHTYLEWFLQKPGQSPKLLIYKVSNRFSGVPDRFSGSGSGTDFTLKISRVEAEDLGVYYCFQGSHVPYTFGGGTKLEIK	1.48	0.032	0.041	0.041	0.055	0.048	0.199	0.052	0.175	0.052	0.064	0.061	0.057	0.057	2.74	0.047	0.04	0.069	0.077	0.077	signal [OD405 nm] [21]: 0.064 OD405 nm; signal [OD405 nm] [22]: 0.083 OD405 nm; signal [OD405 nm] [23]: 0.05 OD405 nm; signal [OD405 nm] [24]: 0.066 OD405 nm; signal [OD405 nm] [25]: 0.068 OD405 nm
